Seven molecules from US20230235054A1 (BIOATLA, published 2023) can be followed below.

The target in test [1] is T1, cynoNectin4-mFc (cyno, UniProt A0A2K5WES1 32-349).
T1 construct: Immobilized on the SPR chip; also called cyanoNectin4; not shown: mFc (mouse Fc)
T1 sequence: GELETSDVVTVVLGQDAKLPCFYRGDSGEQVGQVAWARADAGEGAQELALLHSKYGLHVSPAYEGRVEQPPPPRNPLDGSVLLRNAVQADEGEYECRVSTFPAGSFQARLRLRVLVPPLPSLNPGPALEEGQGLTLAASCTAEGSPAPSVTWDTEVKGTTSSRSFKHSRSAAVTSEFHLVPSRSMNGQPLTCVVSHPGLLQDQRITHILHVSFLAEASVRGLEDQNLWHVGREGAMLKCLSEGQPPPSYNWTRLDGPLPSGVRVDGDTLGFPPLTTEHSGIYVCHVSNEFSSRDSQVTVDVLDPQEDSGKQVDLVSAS
Description: SPR, cynoNectin4-mFc immobilized, pH 6.0. The method, then:
(§1) Binding kinetics of anti-Nectin4 antibodies were measured by surface plasmon resonance using a SPR2/4 instrument (Sierra Sensors, Hamburg, Germany) and flat amine sensor chips. The SPR sensor contained four flow cells (FC1-FC4), each of which was addressed individually or in groups. huNectin4-His was immobilized in FC2, and cynoNectin4-mFc in FC4. No protein was immobilized in FC1 and FC3 which were used as control surfaces for FC2 and FC4, respectively.
(§2) All injections were done at a flow rate of 25 μL/min at 25° C. The sensor surface was activated with 1-ethyl-3-(3-dimethylaminopropyl)-carbodiimide (EDC) and N-hydroxysuccinimide (NHS) (200 mM/50 mM) for 480 seconds. HuNectin4-His (2 μg/mL in 10 mM NaAc, pH4.5) was injected for 480s and the surface was inactivated by injecting 1M ethanolamine-HCl for 480s. CynoNectin4 was immobilized using the same conditions as described for huNectin4-His, except that the cynoNectin4 was diluted into 10 mM NaAc buffer having pH 5.0. The control surface was activated and deactivated using the same conditions, but without injecting protein. PBST buffer (PBS pH 7.4 with 0.05% TWEEN20™) was used as running buffer for the surface preparation. The running solution was switched to PBST with 30 mM sodium bicarbonate with the pH adjusted as indicated in the figures before the analyte injections. The instrument was equilibrated with the running solution for one hour before the first analyte injection.
(§3) The off-rate was measured for 360s. The chip surface was regenerated after each cycle of interaction analysis by injecting 6 μL of 10 mM glycine (pH 2.0). Flow cells 1 and 3 without immobilized protein were used as control surfaces for reference subtraction.
(In general: SPR reads the build-up and loss of mass on a sensor chip optically.)

Test [2] addresses T1, cynoNectin4-mFc. Description: SPR, cynoNectin4-mFc immobilized, pH 7.4. As for the experimental part:
as §1, §2, §3

The target in another test is T2, huNectin4-His (human, UniProt Q96NY8 32-349).
T2 construct: Immobilized on the SPR chip; also called humanNectin4; human Nectin4; not shown: His tag
T2 sequence (looked up): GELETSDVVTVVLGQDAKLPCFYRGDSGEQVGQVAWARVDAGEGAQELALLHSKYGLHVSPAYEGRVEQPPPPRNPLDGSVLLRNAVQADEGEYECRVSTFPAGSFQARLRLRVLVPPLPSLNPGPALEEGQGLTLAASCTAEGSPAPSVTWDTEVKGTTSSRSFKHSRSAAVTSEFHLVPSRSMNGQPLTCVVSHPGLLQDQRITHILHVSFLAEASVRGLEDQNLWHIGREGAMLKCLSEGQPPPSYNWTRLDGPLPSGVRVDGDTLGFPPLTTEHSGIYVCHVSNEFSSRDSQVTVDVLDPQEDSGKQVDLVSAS
The test is described as follows: SPR, huNectin4-His immobilized, pH 6.5. The method, then: as §1, §2, §3

Test [3] concerns the target T3, recombinant human Nectin4 antigen (human, UniProt Q96NY8 32-349).
T3 construct: construct not described
T3 sequence (looked up): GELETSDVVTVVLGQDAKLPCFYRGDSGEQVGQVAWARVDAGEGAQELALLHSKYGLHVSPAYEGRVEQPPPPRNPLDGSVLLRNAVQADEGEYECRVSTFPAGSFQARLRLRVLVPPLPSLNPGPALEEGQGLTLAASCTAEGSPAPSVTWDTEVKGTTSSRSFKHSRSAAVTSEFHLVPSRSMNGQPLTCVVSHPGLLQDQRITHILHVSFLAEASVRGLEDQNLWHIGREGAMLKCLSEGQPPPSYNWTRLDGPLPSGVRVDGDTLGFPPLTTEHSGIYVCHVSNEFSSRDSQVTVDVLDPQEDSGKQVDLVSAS
The test is described as follows: ELISA, coated antigen, PSB pH 6.0. As for the experimental part: 1) Coat ELISA plates with 100 μL of 1 μg/mL recombinant human Nectin4 antigen or cynoNectin4 antigen in carbonate-bicarbonate coating buffer. […] 2) Cover plates with sealing film and incubate overnight at 4° C. [0444] 3) Decant plates and tap out residual liquid on a stack of paper towels. [0445] 4) Wash wells twice by dispensing 200 μL of pH 6.0 or pH 7.4 ELISA incubation buffer to the wells and completely aspirate the contents. [0446] 5) Add 200 μL of pH 6.0 or pH 7.4 ELISA incubation buffer to the wells. Cover with sealing film and place the plate onto a plate shaker set to 50 rpm for 60 minutes at room temperature. [0447] 6) Decant plates and tap out residual liquid on a stack of paper towels. […] 7) Serially dilute test articles in 3-fold dilutions starting at 3000 ng/mL in pH 6.0 or pH 7.4 ELISA incubation buffer. […] 8) Add 100 μL/well of diluted test articles to the plates [0450] 9) Cover with sealing film and place the plates onto a plate shaker set to 50 rpm for 60 minutes at room temperature. [0451] 10) Decant plates and tap out residual liquid on a stack of paper towels. [0452] 11) Wash wells three times by dispensing 200 μL of pH 6.0 or pH 7.4 ELISA wash buffer to the wells and completely aspirate the contents. […] 12) Dilute the HRP secondary antibody at 1:2500 in pH 6.0 or pH 7.4 ELISA incubation buffer. [0454] […] 14) Cover with sealing film and place the plates onto a plate shaker set to 50 rpm for 60 minutes at room temperature. […] 15) Decant plates and tap out residual liquid on a stack of paper towels. […] 16) Wash wells three times by dispensing 200 μL of pH 6.0 or pH 7.4 ELISA wash buffer to the wells and completely aspirate the contents. [0458] 17) Dispense 50 μL per well of the TMB substrate solution into all wells of the plates.

B1: BAP-143-wildtype (antibody, V domains shown)
VH: EVQLVESGGGLVQPGGSLRLSCAASGFTFSSYNMNWVRQAPGKGLEWVSYISSSSSTIYYADSVKGRFTISRDNAKNSLSLQMNSLRDEDTAVYYCARAYYYGMDVWGQGTTVTVSS
VL: DIQMTQSPSSVSASVGDRVTITCRASQGISGWLAWYQQKPGKAPKFLIYAASTLQSGVPSRFSGSGSGTDFTLTISSLQPEDFATYYCQQANSFPPTFGGGTKVEIK
notes: 150 kDa used in SPR; also called BAP143-00-00; benchmark (BM)
On to B1, for which the Kd amounted to 1.06 nM with cynoNectin4-mFc [1], 0.333 nM with cynoNectin4-mFc [2] and 0.685 nM in the test with huNectin4-His. The EC50 in test [3] amounted to 0.0316 mg/L.

B2: BAP-143-00-05 (antibody, V domains shown)
VH: EVQLVESGGGLVQPGGSLRLSCAASGFTFSSYNMNWVRQAPGKGLEWVSYISSSSSTIYYADSVKGRFTISRDNAKNSLSLQMNSLRDEDTAVYYCAEAYYYGMDVWGQGTTVTVSS
VL: DIQMTQSPSSVSASVGDRVTITCRASQGISGWLAWYQQKPGKAPKFLIYAASTLQSGVPSRFSGSGSGTDFTLTISSLQPEDFATYYCQQANSFPPTFGGGTKVEIK
notes: Used as a conjugate with a linker payload (CAB ADC)
Turning to B2, in the test with cynoNectin4-mFc [1], the Kd turned out to be 7.02 nM, the koff came to 0.00449 s⁻¹ and the kon was 639000 M⁻¹ s⁻¹. In the test with cynoNectin4-mFc [2], this molecule showed a Kd of 4.89 nM, a koff of 0.00157 s⁻¹ and a kon of 322000 M⁻¹ s⁻¹. In the test with huNectin4-His, this molecule registered a Kd of 6.23 nM, a koff of 0.00453 s⁻¹ and a kon of 726000 M⁻¹ s⁻¹. The EC50 in test [3] was 0.0441 mg/L.

B3: BAP-143-00-03 (antibody, V domains shown)
VH: EVQLVESGGGLVQPGGSLRLSCAASGFTFSSYNMNWVRQAPGKGLEWVSYISSSSSTIYYADSVKGRFTISRDNAKNSLSLQMNSLRDEDTAVYYCARAYYYGMDVWGQGTTVTVSS
VL: DIQMTQSPSSVSASVGDRVTITCRASQGISGWLAWYQQKPGKAPKFLIYAASTLQSGVPSRFSGSGSGTDFTLTISSLQPEDFATYYCQQANSFPDTFGGGTKVEIK
notes: as for B2
As to B3, in the test with cynoNectin4-mFc [1], binding was put at a Kd of 2.33 nM, the koff came out at 0.00235 s⁻¹ and the kon turned out to be 1.01e+06 M⁻¹ s⁻¹. Besides, in the test with cynoNectin4-mFc [2], the affinity, expressed as Kd, was 3.85 nM; the koff was determined as 0.000826 s⁻¹; the kon came to 215000 M⁻¹ s⁻¹. Also, in the test with huNectin4-His, binding was characterised by a dissociation constant (Kd) of 2.97 nM, the koff was 0.00229 s⁻¹ and the on-rate constant (kon) was 771000 M⁻¹ s⁻¹. The EC50 in test [3] was 0.0344 mg/L.

B4: BAP-143-00-06 (antibody, V domains shown)
VH: EVQLVESGGGLVQPGGSLRLSCAASGFTFSSYNMNWVRQAPGKGLEWVSYISSSSSTIYYADSVKGRFTISRDNAKNSLSLQMNSLRDEDTAVYYCARAYYYGDDVWGQGTTVTVSS
VL: DIQMTQSPSSVSASVGDRVTITCRASQGISGWLAWYQQKPGKAPKFLIYAASTLQSGVPSRFSGSGSGTDFTLTISSLQPEDFATYYCQQANSFPPTFGGGTKVEIK
notes: as for B2
For the molecule B4, the Kd in the test with cynoNectin4-mFc [1] was determined as 0.56 nM; with cynoNectin4-mFc [2] it was 0.4 nM; with huNectin4-His, 0.22 nM. Further, the koff with cynoNectin4-mFc [1] worked out at 0.00141 s⁻¹; in the test with cynoNectin4-mFc [2], 0.000335 s⁻¹; in the test with huNectin4-His, 0.000726 s⁻¹. In addition, the kon in the test with cynoNectin4-mFc [1] came to 2.52e+06 M⁻¹ s⁻¹; in the test with cynoNectin4-mFc [2], 839000 M⁻¹ s⁻¹; with huNectin4-His it was 3.3e+06 M⁻¹ s⁻¹. Also, in test [3], the EC50 was determined as 0.0247 mg/L.

B5: BAP-143-00-02 (antibody, V domains shown)
VH: EVQLVESGGGLVQPGGSLRLSCAASGFTFSSYNMNWVRQAPGKGLEWVSYISSSSSTIYYADSVKGRFTISRDNAKNSLSLQMNSLRDEDTAVYYCARAYYYGMDVWGQGTTVTVSS
VL: DIQMTQSPSSVSASVGDRVTITCRASQGISGWLAWYQQKPGKAPKFLIYAASTLQSGVPSRFSGSGSGTDFTLTISSLQPEDFATYYCQQANSEPPTFGGGTKVEIK
notes: as for B2
For the molecule B5, in the test with cynoNectin4-mFc [1], the Kd stood at 5.46 nM, the koff turned out to be 0.00242 s⁻¹ and the kon was determined as 443000 M⁻¹ s⁻¹. In addition, in the test with cynoNectin4-mFc [2], the affinity, expressed as Kd, was 5.86 nM; the koff worked out at 0.00195 s⁻¹; the kon worked out at 334000 M⁻¹ s⁻¹. The EC50 in test [3] was determined as 0.0876 mg/L.

B6: BAP-143-00-04 (antibody, V domains shown)
VH: EVQLVESGGGLVQPGGSLRLSCAASGFTFSSYNDNWVRQAPGKGLEWVSYISSSSSTIYYADSVKGRFTISRDNAKNSLSLQMNSLRDEDTAVYYCARAYYYGMDVWGQGTTVTVSS
VL: DIQMTQSPSSVSASVGDRVTITCRASQGISGWLAWYQQKPGKAPKFLIYAASTLQSGVPSRFSGSGSGTDFTLTISSLQPEDFATYYCQQANSFPPTFGGGTKVEIK
notes: as for B2
Consider B6, for which, in the test with cynoNectin4-mFc [1], binding was put at a Kd of 2.08 nM, the koff amounted to 0.00377 s⁻¹ and the kon stood at 1.82e+06 M⁻¹ s⁻¹. Moreover, in the test with cynoNectin4-mFc [2], the Kd turned out to be 1.33 nM, the koff worked out at 0.00112 s⁻¹ and the kon turned out to be 840000 M⁻¹ s⁻¹. In the test with huNectin4-His, this molecule yielded a Kd of 1.5 nM, a koff of 0.00439 s⁻¹ and a kon of 2.94e+06 M⁻¹ s⁻¹. In addition, the EC50 in test [3] stood at 0.0258 mg/L.

B7: BAP-143-00-01 (antibody, V domains shown)
VH: EVQLVESGGGLVQPGGSLRLSCAASGFTFSSYNMNWVRQAPGKGLEWVSYISSSSSTIYYADSVKGRFTISRDNAKNSLSLQMNSLRDEDTAVYYCARAYYYGMDVWGQGTTVTVSS
VL: DIQMTQSPSSVSASVGDRVTITCRASQGISGWEAWYQQKPGKAPKFLIYAASTLQSGVPSRFSGSGSGTDFTLTISSLQPEDFATYYCQQANSFPPTFGGGTKVEIK
notes: as for B2
For the molecule B7, the figures for the Kd in the test with cynoNectin4-mFc [1], in the test with cynoNectin4-mFc [2] and with huNectin4-His were 3.04 nM, 11.1 nM and 5.15 nM, respectively. Also, the koff in the test with cynoNectin4-mFc [1] turned out to be 0.00248 s⁻¹; with cynoNectin4-mFc [2] it was 0.00162 s⁻¹; with huNectin4-His, 0.00245 s⁻¹. In addition, the figures for the kon in the test with cynoNectin4-mFc [1], in the test with cynoNectin4-mFc [2] and in the test with huNectin4-His were 817000 M⁻¹ s⁻¹, 146000 M⁻¹ s⁻¹ and 476000 M⁻¹ s⁻¹, respectively. The EC50 in test [3] came to 0.0313 mg/L.

The term Kd denotes the constant that tells how readily two partners part at equilibrium. Lower therefore signals tighter binding. Usually EC50 stands for the concentration at which the effect is half-maximal. As a reminder, the koff is a measure of how fast the partners let go of each other. A high value points to a short-lived complex. In general, kon refers to the rate constant with which the complex forms. The low end stands for slow association, the high end for fast association.
